Source: the DeepSol protein solubility set

assay: soluble on expression in E. coli; label from the status in PepcDB or PDB records

Sequence | soluble on expression in E. coli
MSIDIKYLSRIDIDREEFFFKDSRLMCKKFDEEREVLTLLEFDTKFRVNLLKKDKVYKYFLVSDANHKLLIANLVTEQQAKDLSFIEKDIMKIASSATAYGASDIHFIREDRICKIKFRVNGTMIDYREILSSEADALMFVLYNVMATTKETTWNRKLPQDANIILVINEKAYRFRYAHMPLFGEGGKNYHAVVRIIYPSNNFVCTNYQDIGYNEADTDAIARILNTSYGLFIVSGTTGSGKSTSLKKYIELLFFNKYKGKGCFVTVEDPVEYLISGAQQSSIVADNDDKTKNPFADAVRSAMRRDPDVIMIGEIRDKPTVEALSSAVESGHYCLTTIHAGSVVSVLQRLSGLGMKADKIASPGFLAGITSQKLIPELCPSCKVSFVDERYQRAVFSANENGCEACNHSGFKGRLLLLETLVPTVEDLELVASENWVSLYRKYRERRFIKTGKKGLGEGFSIKDKAYYNVLKGKVCHEYFMLHFGQLDHEDENIIYENYLQEV | not soluble
MRGSHHHHHHGSATSANTDRIATAELGIAENKKDAQIAKAQANENKDGIAKNQADIQLHDKKITNLGILHSMVARAVGNNTQGVATNKADIAKNQADIANNIKNIYELAQQQDQHSSDIKTLAKVSAANTDRIAKNKAEADASFETLTKNQKLCSQA | soluble
MTNLKAVIPVAGLGMHMLPATKAIPKEMLPIVDKPMIQYIVDEIVAAGIKEILLVTHASKNAVENHFDTSYELESLLEQRVKRQLLAEVQSICPPGVTIMNVRQGEPLGLGHSILCARPAIGDNPFVVVLPDVVIDDASADPLRYNLAAMIARFNETGRSQVLAKRMPGDLSEYSVIQTKEPLDREGKVSRIVEFIEKPDQPQTLDSDIMAVGRYVLSADIWPELERTQPGAWGRIQLTDAIAELAKKQSVDAMLMTGDSYDCGKKMGYMQAFVKYGLRNLKEGAKFRKGIEKLLSE | not soluble
MHHHHHHMGLNTAIATRVNGTPPPEVPIADIELGSLDFWALDDDVRDGAFATLRREAPISFWPTIELPGFVAGNGHWALTKYDDVFYASRHPDIFSSYPNITINDQTPELAEYFGSMIVLDDPRHQRLRSIVSRAFTPKVVARIEAAVRDRAHRLVSSMIANNPDRQADLVSELAGPLPLQIICDMMGIPKADHQRIFHWTNVILGFGDPDLATDFDEFMQVSADIGAYATALAEDRRVNHHDDLTSSLVEAEVDGERLSSREIASFFILLVVAGNETTRNAITHGVLALSRYPEQRDRWWSDFDGLAPTAVEEIVRWASPVVYMRRTLTQDIELRGTKMAAGDKVSLWYCSANRDESKFADPWTFDLARNPNPHLGFGGGGAHFCLGANLARREIRVAFDELRRQMPDVVATEEPARLLSQFIHGIKTLPVTWS | soluble
GVKLQQSGPEVVKPGASVKISCKASGYSFTNFYIHWVKQRPGQGLEWIGWIFHGSDNTEYNEKFKDKATLTADTSSSTAYMQLSSLTSEDSAVYFCARWGPHWYFDVWGQGTTVTVSSAKTTPPSVYPLAPGNSMVTLGCLVKGYFPEPVTVTWNSGSLSSGVHTFPAVLQSDLYTLSSSVTVPSSTWPSETVTCNVAHPASSTKVDKKIAAAG | soluble
MQHPTTKYVKLSFALIFLFNIASASIFSDDVTEATSSPDTTTTAVAIRAKRQCGGMGGCCGGMSGCGCGSMGMCGQTCCPSAPPPCSCGTPGCMQCVQQTVLVPVTTTTCCKCCQPVCTNACTNGGGCSCGCTRGGCSRKRRSLLAIASEEMSKRGDVMV | not soluble
MGLCMMRTLQSAPSSPLAMPEIQFCLLPDACRPLLGKFYREHQSSMRAASKGQAWVAKQEEIIGALCLTPVADGHWLTGLFVAPPLRGNAVAQRLIDAALLPLSGPVWLFCHPDLQGFYRLAGFETAQRLPQALGERLMRYSRSKPLVALHREA | not soluble
MSLKYAWIELHSRQWPVSLTCQVLGVSPSGYHARKARDVDTDRARRRISNDALLVHIKAVHAESKGEYGWPRVWKKLLAQGIRVSKDRVQQLMKLHGIRAKTKRRFKVTTDSNHSLPVAPDLLQRDFSPARPDQVWTMDITYIWTDEGWLFLTVILDLFSRQVVGWSMQPHMRTELVSDALRMAWFRRRPEAGLIVHSDRGSQYCSRDFQDLLKGYGMRSSMSRRGNCWDNAPTESLWGSLKRARILGQRFATRREAMDEVIDWLSFYNHSRLHSTLGYVSPMQFERDWYAAQNQRVAEGHHHHHH | not soluble
MDKVYLTWWQVDRAIFALAEKLREYKPDVIIGVARGGLIPAVRLSHILGDIPLKVIDVKFYKGIDERGEKPVITIPIHGDLKDKRVVIVDDVSDTGKTLEVVIEEVKKLGAKEIKIACLAMKPWTSVVPDYYVFRTEKWIVFPWEEFPVIEKE | soluble
MKSRIPVVLLACGSFNPITNMHLRMFEVARDHLHQTGMYQVIQGIISPVNDTYGKKDLAASHHRVAMARLALQTSDWIRVDPWESEQAQWMETVKVLRHHHSKLLRSPPQMEGPDHGKALFSTPAAVPELKLLCGADVLKTFQTPNLWKDAHIQEIVEKFGLVCVGRVSHDPKGYIAESPILRMHQHNIHLAKEPVQNEISATYIRRALGQGQSVKYLIPDAVITYIKDHGLYTKGSTWKGKSTQSTEGKTS | soluble
MGSDKIHHHHHHMFHREDFSKALLKKALQPGMRVMDIGCGSGELTRLAADIVGKEGDVVGIDINEQLLWQARHDNGYANVSYQNADLAALSSFETKSFDAIIGRRVLMYQKDPKKVIESLTPLLKPNGFYVFQESDAMCLELAKPSFVNMNKIQSLIWQTVEKEGGHIHIGSQLEQLMLEAGLIVDHFVSENVIQTSQTGTDLSWLLNIMKERIQKYSDLQGLEDVNLQKELEENNDHFIRDCQFGIISHRVDE | not soluble
MKPNPPINELVLLQAHQLAERIRLRQVSCREVMQAYLAHIERFNPRVNALVSLLPAERLLEEADARDGELARGEWRGWMHGLPHAIKDLSLTRGIRTTLGSPLYRDYIPERDGIMVERIRAAGAILIGKTNTPEFGLGSQTYNPLFGATACAYDERLSAGGSSGGAAAALALHLVPVADGSDMMGSLRNPAAFNNVIGFRPSQGRVPFDDSADLFFDQLGYEGPMGRSVRDTALLLSVQAGADRRAPLSIAEPGARFAAPLERDFEGTRLGWLGDLDGYLPMQDGILQMCQRALGDFRSLGCEIEEANLGFAPERLWECWRTLRHWLVAGSLGGVHADPAKRALLKPEALWEVENGLRLGADAVFRASVIRSDWYRAIGRLFERYDYLLLPSAQVFPFAKETPWPRSIEGVAMDTYHRWMEVVVPGSLSGCPVANVQAGFNAEGLPMGLQIIGPHQADFAVLQLAHAYERASRWFERQPSPLLAN | not soluble
MSSQTILSVNNLSVSFTTNDGIVDAVKNVSFELQAGETLSIVGESGSGKSVSTNALMTLLPDNAIVHPDSSIMFEGESILDKTERQMQRIRGDRIGMIFQEPMTSLNPYMRVGIQVAEAMMCHRSVNQRKAKERVLELFDLVHLPNPQQAYDKYPHEFSGGQLQRIMIAMALINEPDILIADEPTTALDVTVQAEVLLLIKEIQAKMGMAILFITHDLGVVKHFADRVLVMCKGEVVEEGITEHLFSEPQHEYTKMLINSIPKGSKTPVDEKASELLNAEDIR | not soluble
MGSDKIHHHHHHMPSTNPFLTLPYEPAFASLGSEFSDPVEAATFPAHQLRFRNDRLLPILGLDPATVTDEHFIEAFGRFQGRSPLLAMRYHGYQFGIYNPDLGDGRGFLYGQVRGRNGWLYDFGTKGSGRTPYSRGGDGKLTLKGGVREVLASEFLQRLGVRTGRCLSLIETGEELWRGDEPSPTRSSVMVRFNRTHIRFGTFERLHYFKRADLVRQLLDHVIATYYSHLLGDPEADAKFYAELTERTADLAAQWMAAGFCHAVLNTDNLSIVGESFDYGPWAFLDRFDPKFTAAYFDHSGRYRYENQPGICQLNLELLQVPLGMVMSAADLEAGIAGFGDRYQATYSRLMLRRLGFEADQLHSAIADDLIITTLQLLLRAPIGYNEFFARLRAQFQPSWRSDLSAILPDWITTDLEALPEAQWQGWRDRYHQLLTHLPESQLPLIQQQLAQANPEIAPIRPVVESVWDPIAIDDNWEPLEALLNRWRHDGDGAADGVVVPNAN | not soluble
MRKKKDGQNLPDFRKNPPKLDKKAYEKELKRLQAELVDLQQWVVETGARVVIVMEGRDAAGKGSAIKRITQYLNPRSARIEALPTPNSREKGQWYFQRYIEKLPTAGEIVIFDRSWYNRAGVERVMGFCTSQEYRRFLHQAPIFERLLVEDGIHLRKYWFSVSDEEQIERFEDRLSDPLRRWKLSPMDLQSITRWEDYSRAKDEMFIHTDIPSAPWYTVESEDKKRSRINVISHLLSTIPYEKIDRPLPEIPHRPDSESDYVRPPRDEFRYVPDVAAHLEEERIKKEEKAKKAKKPAKAAGKNSDKQKSSGGKGKKKSKK | not soluble
MGSDKIHHHHHHMGDSMSLDWDKLRIFHAAAEAGSFTHAADKLHLSQSAISRQVSSLEQDVGIKLFHRHARGLILTEQGEMLYRTAHDVLMKLESVKAQLSETTDKPSGKLRITTTVGLGQGWLTDKIQEFMSLYPEIQVQLILDNEELDVNMRHADCAIRLRQPQQSDLIQRKLFTVHMHVYAAPSYINKYGEPQSLDDLDNHRIITFGEPAPNYLLDVNWLEIAGRDSDNPRISHLQINSQTSIKRACLLGIGIAMLPDYIVGRDPGLIQLPISADIPSFDTYFCYPDELKNAAKLKVFRDYIVAKARNWNF | not soluble
MEVDPGGGKKPMIVKKMVAFSKREEERILLEIDLYKKLENNEFVIDLMAHIVDDITHYLLFDKYSQNFLEYIEELKIGGEVDELKHLKYFSGIVSAIEQLHGFEFAHLDIKPANILKSGDTIKMIDFGSATKMPIEIKTSADHHRHKEDAEELCSMMYRAPELFNCEIGSTLTTAVDVWALGVCLYEFLYLENPFNKIYEQGGSIALATQSPHMIKWNENRHISEKSINLIKSILIVDPNQRPTIGELRAKVDNLLANFDTPEEAENPEITDEEFDLGMRETT | not soluble
MGSDKIHHHHHHMIIAGAVPIKGMELIKGPVKLNKDTFEIKNKELPISMGTCALLGAAFKTLEYFGKEDELTFITAGDVGEGDGSLEIYEELHEINDDLTIIHYIKPKISEIIKVDFSKNVIGDAGGMYAGKAAGIGNKFHMFFPDVGELAFLADENSSHPAYVRGFISEIDDQEIPKLIKMAYTQKMPKNMVVKGSKDHIVNEGNIIETVEYPKFEAMECIGGTGDTLTGIASSLIACGFKTEKAGILGCKLNRKLGELVKPRPDTQIYEIIQKIPEALKEFDL | not soluble
MGHHHHHHSHMQHLENSSLFEGSLSKNLSLNSQALKENLYYEAGKMLAISLVHGGPSPGFFSKTLFNCLVYGPENTQPILDDVSDFDVAQIIIRINTATTVADLKSIINECYNYLELIGCLRLITTLSDKYMLVKDILGYHVIQRVHTPFESFKQGLKTLGVLEKIQAYPEAFCSILCHKPESLSAKILSELFTVHTLPDVKALGFWNSYLQAVEDGKSTATMEDILIFATGCSSIPPAGFKPTPSIECLHVDFPVGNKCNNCLAIPITNTYKEFQENMDFTIRNTLRLEKEESSHYIGH | not soluble
MGSDKIHHHHHHMSRPAITAIPVFKLYGETTAWPTPDLIHCESIPERSRMHDWEIKPHRHGDLVQLLYVQSGKAMLKVEDRVRKVETASLQVVPALSVHTFRFAEDIQGHILSLAKPLVEQLETTLDSSAMRTARCYELGADSHYVDTLFSAIAREYRQPRAGRDLMLHSLINVLVVWLSRRNSEEAGEQVQTMDRGREHLQVFMHQLETCFREHWSIEQHAQAMGISAAHLNALCRRLCDQSALQIISQRLLLEAKRNLIYTTLTINQVSDSLGFSEPAYFSRFFKRATGQSPREFRQQK | not soluble
MEETVDQAANSRTISLPISRVRLIMKSSPDVSCINQDALFLTTKATELFVQHLALSSYENGPSKDTNTLSYSDLADTVEETETFQFLTDILPKKILARDYLKTLEEMEKEDDNM | not soluble
